Assay results from the supplement of paper PMC11780869.

system: Bacillus subtilis; test: cleaved RNA product abundance (RNA/gDNA barcode ratio) relative to median wild-type variant (ratio to wild type); higher = more accumulation of the downstream cleavage product; settings: experiment (reporter, strain, medium): exp 2b: truncated aprE reporter, strain BJT200; cleavage site: cggR-gapA (positions -7 to +36 mutated)
Method in brief: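 In LB at 37°C, B. subtilis cultures went from OD600 0.0003 to 0.3. Their chromosomes held barcoded reporter mRNAs, truncated aprE or tetM, with RNase Y cleavage-site windows mutagenized via oligos at a 9% error rate. Cleaved RNA, chosen by gel, was reverse transcribed and barcode-sequenced alongside genomic DNA barcodes with UMI collapsing, giving a per-construct RNA:gDNA ratio scaled to the median construct with the unmutated site. This scaled ratio is termed cleaved product abundance.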

Sequence	cleaved RNA product abundance
ACAGACGAAGGAGCCGCAAAGAAGTTATTAAGAGACGAATAATCCCTCAATATAAATATCTCTCACTTATTTAAA	0.0781
ACAGACGAAGGAGCCGCAAAGAAGTTATAAAGGGTTGAATAATCCCTCAATATAAATATCTCTCACTTATTTAAA	0.163
ACAGACGAAGGAGCCGCAAAGAAGTTAATAAGCGATGAATAATCCCTCAATATAAATATCTCTCACTTATTTAAA	0.0808
ACAGACGAAGGAGCCGCAAAGAAGTTATTAAGGGATGAATAATCCCCTCAATATAAATATCTCTCACTTATTTAA	0.181
ACAGACGAAGGAGCCGCAAAGAAGTTATTAAGAGATGAATAAGCCCTCAATATAAATATCTCTCACTTATTTAAA	0.1
ACAGACGAAGGAGCCGCAAAGAAGTTATTAAGGGAAGAATAATCCCTCACTATAAATATCTCTCACTTATTTAAA	0.187
ACAGACGAAGGAGCCGCAAAGAAGTAATTAAGGAATGAATAATCCCTCAATATAAATATCTCTCACTTATTTAAA	0.0931
ACAGACGAAGGAGCCGCAAAGAAGTTTTTAAGGGATGAATAATCCCTAAATATAAATATCTCTCACTTATTTAAA	0.364
ACAGACGAAGGAGCCGCAAAGAAGTTATTAAGGGATGATTAATCCCTCAAAATAAATATCTCTCACTTATTTAAA	0.294
ACAGACGAAGGAGCCGCAAAGAAGTTATTAAAGGATGAATAATCCCTCAATGTAAATATCTCTCACTTATTTAAA	0.0901
ACAGACGAAGGAGCCGCAAAGAAGTTAGTAAGGGATGAATAATCCATCAATATAAATATCTCTCACTTATTTAAA	0.251
ACAGACGAAGGAGCCGCAAAGAAGTTATTAAGGGATGAATAATCATTCAATATAAATATCTCTCACTTATTTAAA	0.171

same assay, conditions: experiment (reporter, strain, medium): exp 4a: truncated aprE reporter, strain BJT201 with 2% xylose (RNase J1 expressed); cleavage site: cggR-gapA (positions -7 to +36 mutated)

Sequence	cleaved RNA product abundance
ACAGACGAAGGAGCCGCAAAGATGTTATTAAGAGATGAATAATCCCTCAATATAAATATCTCTCACTTATTTAAA	0.156
ACAGACGAAGGAGCCGCAAAGAAGTTATTAAGAGACGAATAATCCCTCAATATAAATATCTCTCACTTATTTAAA	0.0728
ACAGACGAAGGAGCCGCAAAGAAGTTATAAAGGGTTGAATAATCCCTCAATATAAATATCTCTCACTTATTTAAA	0.24
ACAGACGAAGGAGCCGCAAAGAAGTTATCAAGTGATGAATAATCCCTCAATATAAATATCTCTCACTTATTTAAA	0.0945
ACAGACGAAGGAGCCGCAAAGAAATTATTATGGGATGAATAATCCCTCAATATAAATATCTCTCACTTATTTAAA	0.277
ACAGACGAAGGAGCCGCAAAGAAGTTATTAAGGGATTAATAATCCCTCAATATAAACATCTCTCACTTATTTAAA	0.803
ACAGACGAAGGAGCCGCAAAGAAGTTAATAAGCGATGAATAATCCCTCAATATAAATATCTCTCACTTATTTAAA	0.104
ACAGACGAAGGAGCCGCAAAGAAGTTATTAAGGGATCAATAGTCCCTCAATATAAATATCTCTCACTTATTTAAA	0.828
ACAGACGAAGGAGCCGCAAAGAAGTCATTAAGGGATGAATAATCCCTGAATATAAATATCTCTCACTTATTTAAA	0.136
ACAGACGAAGGAGCCGCAAAGAAGTTATTAAGGGATGAATAATCCCCTCAATATAAATATCTCTCACTTATTTAA	0.364
ACAGACGAAGGAGCCGCAAAGAAGTTATTAAGAGATGAATAAGCCCTCAATATAAATATCTCTCACTTATTTAAA	0.0929
ACAGACGAAGGAGCCGCAAAGAAGTTATTAAGGGATGAATAAACCCTCCATATAAATATCTCTCACTTATTTAAA	0.162
ACAGACGAAGGAGCCGCAAAGAAGTTATTAAGGGATGAAAAATCGCTCAATATAAATATCTCTCACTTATTTAAA	0.0823
ACAGACGAAGGAGCCGCAAAAAAGTTATTAAGGGATGAATAATCCCTTAATATAAATATCTCTCACTTATTTAAA	0.394
ACAGACGAAGGAGCCGCAAATAAGTTATTAAGGGATGAATAATCCCTCATTATAAATATCTCTCACTTATTTAAA	0.356
ACAGACGAAGGAGCCGCAAATAAGTTATTAAGGTTTGAATAATCCCTCAATATAAATATCTCTCACTTATTTAAA	0.0913
ACAGACGAAGGAGCCGCAAAGAATTTATTAAGGGATGAATAATCCCTCAATATAAATGTCTCTCACTTATTTAAA	0.282

Sequence	cleaved RNA product abundance
ACAGACGAAGGAGCCGCAAAGAAGTTATTAAGGGATGAATAATCCCTCAATATAAATGACTCTCACTTATTTAAA	1.3
ACAGACGAAGGAGCCGCAAAGAAGTTATTAACGGATGAATAATCCCGCAATATAAATATCTCTCACTTATTTAAA	0.392
ACAGACGAAGGAGCCGCAAAGAAGTAATTAAGGAATGAATAATCCCTCAATATAAATATCTCTCACTTATTTAAA	0.0879
ACAGACGAAGGAGCCGCAAAGTAGTTATTAACGGATGAATAATCCCTCAATATAAATATCTCTCACTTATTTAAA	0.164
ACAGACGAAGGAGCCGCAAAGAAGTGATTAAGGGATGAATAATCCCTCACTATAAATATCTCTCACTTATTTAAA	0.0759
ACAGACGAAGGAGCCGCAAAGAAGTTATTAAGGGATGATTAATCCCTCAAAATAAATATCTCTCACTTATTTAAA	0.282
ACAGACGAAGGAGCCGCAAAGAAGTTATTAAGGGATGAATAATGCCTCAATAGAAATATCTCTCACTTATTTAAA	0.0653
ACAGACGAAGGAGCCGCAAAGAAGTTATTAAAGGATGAATAATCCCTCAATGTAAATATCTCTCACTTATTTAAA	0.0731
ACAGACGAAGGAGCCGCAAAGAAGTTATCAACGGATGAATAATCCCTCAATATAAATATCTCTCACTTATTTAAA	0.15
ACAGACGAAGGAGCCGCAAAGAAGTTATGAAGGGACGAATAATCCCTCAATATAAATATCTCTCACTTATTTAAA	0.318
ACAGACGAAGGAGCCGCAAAGAAGTTATTAAGGGGTAAATAATCCCTCAATATAAATATCTCTCACTTATTTAAA	0.708
ACAGACGAAGGAGCCGCAAAGAATTTAGTAAGGGATGAATAATCCCTCAATATAAATATCTCTCACTTATTTAAA	0.337
ACAGACGAAGGAGCCGCAAAGAAGTTATTAAGGGATGAATAACCCCTCAATATATATATCTCTCACTTATTTAAA	0.739
ACAGACGAAGGAGCCGCAAAGAAGTTATTAAGGGATGAATAATCATTCAATATAAATATCTCTCACTTATTTAAA	0.295
ACAGACGAAGGAGCCGCAAAGAAATTATTAAGGGATGAATAATAACTCAATATAAATATCTCTCACTTATTTAAA	0.168
ACAGACGAAGGAGCCGCGAAGAAGTTATTAAGGGATGAATAATCTCTCAATATAAATATCTCTCACTTATTTAAA	0.671
ACAGACGAAGGAGCCGCACAGAAGTTATTAAGGGATGAATAATCCCTCAATATAAAGATCTCTCACTTATTTAAA	0.549

same assay, conditions: experiment (reporter, strain, medium): exp 8a: truncated aprE reporter, strain BJT201 with 2% xylose (RNase J1 expressed); cleavage site: glnRA (positions -5 to +31 mutated)

Sequence	cleaved RNA product abundance
CGACATGTCCCGCTTCTTTCATTAATCCGTTAGCAACTGTTTTGCTAGATACATATACCTTTTAAGAGGAGGAAT	0.781
CGACATGTCCCGCTTCTTTCATTAATCCGTTAGCAACTGTTTTGCTATATACATTTTCTTTTTAAGAGGAGGAAT	0.842
CGACATGTCCCGCTTCTTTCATTAATCCGTTAGCAACTGTGTTGTTATATACATTTACCTTTTAAGAGGAGGAAT	1.01
CGACATGTCCCGCTTCTTTCATTAATCCGTTAGGAACTGTTTTTCTATATACATTTACCTTTTAAGAGGAGGAAT	0.453
CGACATGTCCCGCTTCTTTCATTAATCCGTTAGCAACTGTTGTGCAATATACATTTACCTTTTAAGAGGAGGAAT	0.249
CGACATGTCCCGCTTCTTTCATTAATCCGTTAGCAACTGTTTTGCTATATATATTTACTTTTTAAGAGGAGGAAT	1.89
CGACATGTCCCGCTTCTTTCATTAATCCGTTAGCAACTGTTTTGCGATATACATTTATCTTTTAAGAGGAGGAAT	0.552
CGACATGTCCCGCTTCTTTCATTAATCCGTTAGCTACTGTTTTGCTATATTCATTTACATTTTAAGAGGAGGAAT	0.64
CGACATGTCCCGCTTCTTTCATTAATCGGTTAACAAATGTTGTGCTATAGACATTTACCTTTTAAGAGGAGGAAT	0.209
CGACATGTCCCGCTTCTTTCATTAATACATTAACAACTGTTTTGCTATATACATTTACCTTTTAAGAGGAGGAAT	0.235
CGACATGTCCCGCTTCTTTCATTAATCCGATAGCAACTGTTTTGCTATATAGATTTACCTTTTAAGAGGAGGAAT	1.02
CGACATGTCCCGCTTCTTTCATTAATCCGTTATCAACTGTTTTGCAATATACATTTACCTTTTAAGAGGAGGAAT	0.266
CGACATGTCCCGCTTCTTTCATTAATCCGTTAGCAAATGTTTTGCTATACACATTTACCTTTTAAGAGGAGGAAT	0.444
CGACATGTCCCGCTTCTTTCATTAATTCGTTAGCAACTGTTTTGCTAAATACATTTACCTTTTAAGAGGAGGAAT	0.362
CGACATGTCCCGCTTCTTTCATTACTCCGTTAGCAACTATTTTGCTATATACATTTACCTTTTAAGAGGAGGAAT	1.31
CGACATGTCCCGCTTCTTTCATTAATCCGTTAGCAACTGTTTTGCTAGATACATTTACTTTTTAAGAGGAGGAAT	0.636
CGACATGTCCCGCTTCTTTCATTAATCCGTAAGGAACTGTTTTGCTATATACATTTACCTTTTAAGAGGAGGAAT	0.32
CGACATGTCCCGCTTCTTTCATTATTCCGTAAGCAACTGTTTTGCTATATACATTTACCTTTTAAGAGGAGGAAT	0.594
CGACATGTCCCGCTTCTTTCATTAATCCGTTAGCAACTGTTTTGCTATATACAACTACCTTTTAAGAGGAGGAAT	1.12
CGACATGTCCCGCTTCTTTCATTAATCCTTTAGCAACTGTTTTGCTATACACATTTACCTTTTAAGAGGAGGAAT	0.451
CGACATGTCCCGCTTCTTTCATTAAACCGTTAGCAACTGTTTTGCTATATACTTTTACCTTTTAAGAGGAGGAAT	0.534
CGACATGTCCCGCTTCTTTCATTATTCCGTTACCAAATGTTTTGCTATATACATTTACCTTTTAAGAGGAGGAAT	0.265
CGACATGTCCCGCTTCTTTCATTAATCCGTTAGCAACTGTTTTGCCATATACATTTAACTTTTAAGAGGAGGAAT	0.406
CGACATGTCCCGCTTCTTTCATTAATCCGTTAGCAATTGTTTTGCTATATGCATTTACCTTTTAAGAGGAGGAAT	0.232
CGACATGTCCCGCTTCTTTCATTAATCCTTTAGCAACTGTTTTGCTATATACATTTACCTTTTAAGAGGAGGAAT	0.612
CGACATGTCCCGCTTCTTTCATTAATCCGTTAGCAACTGTTTTTCTATATACATTTACGTTTTAAGAGGAGGAAT	0.305
